# According to patent publication US20230381281A1, “PHARMACEUTICAL COMPOSITION COMPRISING GLUCAGON/GLP-1/GIP TRIPLE AGONIST OR LONG-ACTING CONJUGATE THEREOF FOR PREVENTING OR TREATING LUPUS-RELATED DISEASES” (HANMI PHARM. CO., LTD., priority 2020, published 2023):
# Bridge positions count the residues as written; N and C are the ends. Square brackets hold non-standard residues; d marks the D form. Ends that are not written are not given here. * marks the point of attachment. Acetyl(2-(4-imidazolyl)) = O=C(Cc1c[nH]cn1)*; Aib = CC(C)(N)C(=O)O
# Target: human GLP-1 receptor (human, UniProt P43220 24-463)
# Assay: cell-based or functional assay
row,Binder,In vitro activity compared to native peptide (%) vs GLP-1 [%]
1,Y[Aib]QGTFTSDYSKALDEKAAKDFVNWLLDQHPSSGQPPPSC (bridge 16-20) [Triple agonist of SEQ ID NO: 102],23.3
2,Y[Aib]QGTFTSDYSKALDEKAAKDFVNWLLDHHPSSGQPPPSC (bridge 16-20) [Triple agonist of SEQ ID NO: 99],20.9
3,{Acetyl(2-(4-imidazolyl))}-[Aib]EGTFTSDYSIAMDEIHQKDFVNWLLAQC (bridge 15-19) [Triple agonist of SEQ ID NO: 83],47.3
4,{Acetyl(2-(4-imidazolyl))}-[Aib]EGTFTSDYSIAMDEIHQKDFVDWLLAEC (bridge 15-19) [Triple agonist of SEQ ID NO: 84],4.2
5,{Acetyl(2-(4-imidazolyl))}-GEGTFISDLSKYMDEQAVQLFVEWLMAGGPSSGAPPPSHG [Triple agonist of SEQ ID NO: 12],0.4
6,{Acetyl(2-(4-imidazolyl))}-[Aib]EGTFTSDYSIAMDEIHQKDFVNWLLAQKC (bridge 15-19) [Triple agonist of SEQ ID NO: 90],7.4
7,{Acetyl(2-(4-imidazolyl))}-GQGTFTSDLSKQMDSEAQQLFIEWLKNGGPSSGAPPPSHG [Triple agonist of SEQ ID NO: 16],2.1
8,Y[Aib]QGTFTSDYSKYLDEKRAKEFVQWLLCHHPSSGQPPPS (bridge 16-20) [Triple agonist of SEQ ID NO: 95],2.1
9,H[Aib]QGTFTSDVSKYLDGQAAQEFVAWLLAGC [Triple agonist of SEQ ID NO: 9],32.1
10,{Acetyl(2-(4-imidazolyl))}-[Aib]QGTFTSDYSIAMDEIHQKDFVNWLLAQC (bridge 15-19) [Triple agonist of SEQ ID NO: 85],4.3
11,{Acetyl(2-(4-imidazolyl))}-[Aib]QGTFTSDYSKYLDEKRQKEFVQWLLDTKC (bridge 15-19) [Triple agonist of SEQ ID NO: 89],7.1
12,{Acetyl(2-(4-imidazolyl))}-[Aib]QGTFTSDYSIAMDEIHQKDFVNWLLNTC (bridge 15-19) [Triple agonist of SEQ ID NO: 87],0.9
13,{Acetyl(2-(4-imidazolyl))}-GEGTFISDYSIQLDEIAVQDFVEWLLAQKPSSGAPPPSHG [Triple agonist of SEQ ID NO: 13],< 0.1
14,Y[Aib]QGTFTSDYSKYLDEKRAKEFVQWLLDHCPSSGQPPPS (bridge 16-20) [Triple agonist of SEQ ID NO: 96],34.4

# Target: T1, human GIP receptor (human, UniProt P48546 22-466)
# T1 sequence (looked up): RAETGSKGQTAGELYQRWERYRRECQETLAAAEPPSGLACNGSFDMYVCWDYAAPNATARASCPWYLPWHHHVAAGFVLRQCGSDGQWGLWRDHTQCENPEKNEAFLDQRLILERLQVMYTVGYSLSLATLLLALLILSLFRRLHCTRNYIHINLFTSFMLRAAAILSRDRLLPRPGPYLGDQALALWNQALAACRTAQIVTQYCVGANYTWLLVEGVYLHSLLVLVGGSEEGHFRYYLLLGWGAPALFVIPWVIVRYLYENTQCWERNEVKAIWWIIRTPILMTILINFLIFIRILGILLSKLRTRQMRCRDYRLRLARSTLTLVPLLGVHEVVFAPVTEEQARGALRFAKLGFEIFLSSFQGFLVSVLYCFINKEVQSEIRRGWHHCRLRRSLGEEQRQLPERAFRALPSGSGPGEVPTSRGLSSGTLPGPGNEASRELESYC
# Assay: cell-based or functional assay
row,Binder,In vitro activity compared to native peptide (%) vs GIP [%]
1,Y[Aib]QGTFTSDYSKALDEKAAKDFVNWLLDQHPSSGQPPPSC (bridge 16-20) [Triple agonist of SEQ ID NO: 102],58
2,Y[Aib]QGTFTSDYSKALDEKAAKDFVNWLLDHHPSSGQPPPSC (bridge 16-20) [Triple agonist of SEQ ID NO: 99],57.7
3,{Acetyl(2-(4-imidazolyl))}-[Aib]EGTFTSDYSIAMDEIHQKDFVNWLLAQC (bridge 15-19) [Triple agonist of SEQ ID NO: 83],0.4
4,{Acetyl(2-(4-imidazolyl))}-[Aib]EGTFTSDYSIAMDEIHQKDFVDWLLAEC (bridge 15-19) [Triple agonist of SEQ ID NO: 84],< 0.1
5,{Acetyl(2-(4-imidazolyl))}-GEGTFISDLSKYMDEQAVQLFVEWLMAGGPSSGAPPPSHG [Triple agonist of SEQ ID NO: 12],< 0.1
6,{Acetyl(2-(4-imidazolyl))}-[Aib]EGTFTSDYSIAMDEIHQKDFVNWLLAQKC (bridge 15-19) [Triple agonist of SEQ ID NO: 90],< 0.1
7,{Acetyl(2-(4-imidazolyl))}-GQGTFTSDLSKQMDSEAQQLFIEWLKNGGPSSGAPPPSHG [Triple agonist of SEQ ID NO: 16],< 0.1
8,Y[Aib]QGTFTSDYSKYLDEKRAKEFVQWLLCHHPSSGQPPPS (bridge 16-20) [Triple agonist of SEQ ID NO: 95],< 0.1
9,H[Aib]QGTFTSDVSKYLDGQAAQEFVAWLLAGC [Triple agonist of SEQ ID NO: 9],< 0.1
10,{Acetyl(2-(4-imidazolyl))}-[Aib]QGTFTSDYSIAMDEIHQKDFVNWLLAQC (bridge 15-19) [Triple agonist of SEQ ID NO: 85],0.3
11,{Acetyl(2-(4-imidazolyl))}-[Aib]QGTFTSDYSKYLDEKRQKEFVQWLLDTKC (bridge 15-19) [Triple agonist of SEQ ID NO: 89],< 0.1
12,{Acetyl(2-(4-imidazolyl))}-[Aib]QGTFTSDYSIAMDEIHQKDFVNWLLNTC (bridge 15-19) [Triple agonist of SEQ ID NO: 87],< 0.1
13,{Acetyl(2-(4-imidazolyl))}-GEGTFISDYSIQLDEIAVQDFVEWLLAQKPSSGAPPPSHG [Triple agonist of SEQ ID NO: 13],< 0.1
14,Y[Aib]QGTFTSDYSKYLDEKRAKEFVQWLLDHCPSSGQPPPS (bridge 16-20) [Triple agonist of SEQ ID NO: 96],5.2

# Target: human GCG receptor (human, UniProt P47871 26-477)
# Sequence (P47871 26-477): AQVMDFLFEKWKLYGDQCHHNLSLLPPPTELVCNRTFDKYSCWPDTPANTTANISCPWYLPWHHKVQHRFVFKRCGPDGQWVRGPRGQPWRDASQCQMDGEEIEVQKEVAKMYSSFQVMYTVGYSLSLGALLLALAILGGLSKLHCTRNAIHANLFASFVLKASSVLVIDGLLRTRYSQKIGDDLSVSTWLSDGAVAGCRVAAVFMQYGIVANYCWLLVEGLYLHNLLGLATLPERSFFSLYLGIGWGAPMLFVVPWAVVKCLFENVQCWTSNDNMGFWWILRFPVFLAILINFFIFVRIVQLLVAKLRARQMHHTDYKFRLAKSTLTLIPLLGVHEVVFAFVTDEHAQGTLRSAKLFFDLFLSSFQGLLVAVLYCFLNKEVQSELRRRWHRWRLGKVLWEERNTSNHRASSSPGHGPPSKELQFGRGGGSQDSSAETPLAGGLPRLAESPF
# Assay: cell-based or functional assay
row,Binder,In vitro activity compared to native peptide (%) vs Glucagon [%]
1,Y[Aib]QGTFTSDYSKALDEKAAKDFVNWLLDQHPSSGQPPPSC (bridge 16-20) [Triple agonist of SEQ ID NO: 102],29.5
2,Y[Aib]QGTFTSDYSKALDEKAAKDFVNWLLDHHPSSGQPPPSC (bridge 16-20) [Triple agonist of SEQ ID NO: 99],14.9
3,{Acetyl(2-(4-imidazolyl))}-[Aib]EGTFTSDYSIAMDEIHQKDFVNWLLAQC (bridge 15-19) [Triple agonist of SEQ ID NO: 83],1.3
4,{Acetyl(2-(4-imidazolyl))}-[Aib]EGTFTSDYSIAMDEIHQKDFVDWLLAEC (bridge 15-19) [Triple agonist of SEQ ID NO: 84],< 0.1
5,{Acetyl(2-(4-imidazolyl))}-GEGTFISDLSKYMDEQAVQLFVEWLMAGGPSSGAPPPSHG [Triple agonist of SEQ ID NO: 12],< 0.1
6,{Acetyl(2-(4-imidazolyl))}-[Aib]EGTFTSDYSIAMDEIHQKDFVNWLLAQKC (bridge 15-19) [Triple agonist of SEQ ID NO: 90],< 0.1
7,{Acetyl(2-(4-imidazolyl))}-GQGTFTSDLSKQMDSEAQQLFIEWLKNGGPSSGAPPPSHG [Triple agonist of SEQ ID NO: 16],< 0.1
8,Y[Aib]QGTFTSDYSKYLDEKRAKEFVQWLLCHHPSSGQPPPS (bridge 16-20) [Triple agonist of SEQ ID NO: 95],0.4
9,H[Aib]QGTFTSDVSKYLDGQAAQEFVAWLLAGC [Triple agonist of SEQ ID NO: 9],0.13
10,{Acetyl(2-(4-imidazolyl))}-[Aib]QGTFTSDYSIAMDEIHQKDFVNWLLAQC (bridge 15-19) [Triple agonist of SEQ ID NO: 85],< 0.1
11,{Acetyl(2-(4-imidazolyl))}-[Aib]QGTFTSDYSKYLDEKRQKEFVQWLLDTKC (bridge 15-19) [Triple agonist of SEQ ID NO: 89],0.7
12,{Acetyl(2-(4-imidazolyl))}-[Aib]QGTFTSDYSIAMDEIHQKDFVNWLLNTC (bridge 15-19) [Triple agonist of SEQ ID NO: 87],< 0.1
13,{Acetyl(2-(4-imidazolyl))}-GEGTFISDYSIQLDEIAVQDFVEWLLAQKPSSGAPPPSHG [Triple agonist of SEQ ID NO: 13],< 0.1
14,Y[Aib]QGTFTSDYSKYLDEKRAKEFVQWLLDHCPSSGQPPPS (bridge 16-20) [Triple agonist of SEQ ID NO: 96],195
